Test results published in patent US7638284B2, “Immunoglobulin A inducing protein and uses therefor” (The Curators of the University of Missouri, priority 2000, dated 2009).

Tested on: IGIP transcripts
Assay: RT-PCR of IGIP transcripts in stimulated monocyte derived dendritic cells
Type: cell-based
Conditions: human monocyte derived dendritic cells
Protocol: PBMCs were labeled with anti-CD14 microbeads at 4° C. for 45 minutes, washed three times in sorting buffer. Pure CD14+blood monocytes were then separated by AutoMACS, and cultured at 37° C. for 6 days in cRPMI with 1400 U/ml Leukine (rhGM-CSF) and 10 ng/ml rhIL-4. Non-adherent cells were collected at day six, and purity of dendritic cells was determined by flow cytometry.
Enriched dendritic cell cultures were stimulated with rhCD40L, Pam3CSK, Poly I:C, LPS, CpG DNA, or PMA and Ionomycin for 0, 12, 18, 24, 48, and 72 hours. Total RNA was extracted from harvested cells and treated with DNase to remove any potential contaminating DNA. IGIP was amplified by RT-PCR.
Human dendritic cells (DC) were derived from peripheral blood monocytes by culturing in GM-CSF and IL-4 for 6-7 days. IGIP transcripts were detected by RT-PCR in total RNA from approximately 10^6 monocyte derived DC (mDC) following either Toll-like receptor (TLR) binding or CD40 ligation.

B1: CD40L: rhCD40L used to stimulate dendritic cell cultures (protein, UniProt P29965 113-261, looked up)
CD40 ligand, soluble form: MQKGDQNPQIAAHVISEASSKTTSVLQWAEKGYYTMSNNLVTLENGKQLTVKRQGLYYIYAQVTFCSNREASSQAPFIASLCLKSPGRFERILLRAANTHSSAKPCGQQSIHLGGVFELQPGASVFVNVTDPSQVSHGTGFTSFGLLKL
  loss of IGIP transcripts post stimulation: no longer detectable after 48 hours
  time after stimulation at which IGIP was detectable: approximately 12 hours
  time of peak IGIP expression: 24 h
